Measured values taken from patent publication US5624904A, “Method for treating gram positive septicemia” (Massachusetts Institute of Technology, priority 1993, dated 1997).

Assays:
[1] = tested on: soluble MSRP; assay: bead-binding competition assay: ligands interfering with binding of labeled soluble receptor to poly G beads, M-BSA beads or LTA; settings: inhibitor at 400 μg/ml
Description: The ability of the soluble MSRP to block scavenger receptor-mediated cellular metabolism of known MSRP ligands, such as radiolabeled endotoxin, whole Gram-positive bacteria, or LTA, is measured by competitive inhibition assays. […] This bead-binding assay can be used to measure the association of endotoxin, lipid IVA, LTA, and similar molecules, to soluble forms of the MSRP.

[2] = tested on: Enterococcus hirae; assay: microbial binding assay (whole cell assay) of [35S]s-bSR-I
Description: (§1) Gram-positive bacteria were grown overnight either on LB agar plates (L. monocytogenes, B. subtilis) or on 5% sheep blood agar plates (all other organisms). Fresh colonies were inoculated into Todd Hewitt Broth (DIFCO) and were grown to stationary phase (16-18 hours; 1×10^9 CFU/1 ml) at 37° C. without shaking. Initial experiments indicated greater binding of MSRP to organisms grown to stationary phase compared to organisms used at log phase. Thus, stationary phase organisms were used in all experiments, although results were similar for log phase organisms.
(§2) All bacterial strains were harvested by centrifugation at 3500×g for 10 minutes and washed twice in cold Buffer B (20 mM Tris base at pH 8.0/150 mM NaCl/0.05% NAN3) before resuspending to a final density of approximately 1×10^9 bacteria/ml (O.D.600 =2.0).
(§3) [^35 S]methionine-labeled conditioned medium was prepared from transfected CHO[s-bSRI]-A2 cells and untransfected CHO cells. The media were designated [^35 S]s-bSR-I medium (containing s-bSR-I) and [^35 S]control medium (containing no s-bSR-I) respectively. As described by D. Resnick et al., 268 J. Biol. Chem. 3538-3545 (1993), CHO[s-bSR-1]-A2 and untransfected CHO cells were plated at a density of 9×10^5 cells/100 mm dish in medium B. Cells were grown to 80% confluence (approximately 48 hours), washed, and metabolically labeled by addition of 4.5 ml of medium A prepared with methionine- and cysteine-freeHam's F-12 and supplemented with 0.2 mM L-cysteine, and 80 μCi/mi [^35 S]methionine (Trans ^35 S-label with 70% methionine, purchased from ICN Biomedicals, Irvine, Calif.). After a 5 hour incubation at 37° C., supernatants were collected, and protease inhibitors and Buffer A+BSA (20 mM Tris base at pH 8.0/150 mM NaCl/1 mM CaCl2; containing 2 mg/ml bovine serum albumin and 0.05% NAN3) were added at final concentrations of 1 mM phenylmethylsulfonylfluoride (PMSF) (Sigma, St. Louis, Mo.), 1 μM leupeptin (Sigma), and 1 μM pepstatin (Sigma); 2:1 volume ratio of supernatant to buffer. The samples were then clarified by centrifugation (1000×g, 15 minutes, 4° C.) and stored in Falcon 2099 tubes that had been precoated with Buffer A+BSA.
(§4) Thirty minutes prior to binding assays, unlabeled L-methionine ((Sigma, St. Louis, Mo.) at 10 mM final concentration was added to suspensions of microorganisms grown as described above to minimize incorporation of free [^35 S]methionine into microbial proteins during the assays. One ml assay mixtures containing 200 μl of bacterial suspension (approximately2×10^8 bacteria), 50 μl of Buffer A (20 mM Tris base at pH 8.0/150 mM NaCl/1 mM CaCl2), and 750 μl of either [^35 S]s-bSR-I or [^35 S]control medium were prepared in microcentrifuge tubes and incubated overnight on a rotator at 4° C. Maleylated bovine serum albumin (M-BSA) was coupled to CNBr-activated Sepharose™ (Pharmacia Fine Chemicals, Piscataway, N.J.) at approximately 3 mg M-BSA/mi hydrated resin. Suspensions of M-BSA-coupled Sepharose™ beads (M-BSA beads) (25 μl ) were used in place of microorganism suspensions as positive controls.
(§5) After the overnight incubation, the bacteria or beads were pelleted by centrifugation in a microcentrifuge at 12,500×g for 5 minutes at 4° C. and washed twice with cold buffer A. In experiments examining the ability of LTA to inhibit the binding of the s-bSR-I to M-BSA beads, the beads were allowed to settle by gravity before each washing step, to prevent pelleting of LTA micelies. The washed pellets were then resuspended in SDS-PAGE sample buffer containing 2% β-mercaptoethanol, boiled for 5 minutes, and insoluble material was removed by centrifugation at 12,500×g for 2 minutes. The reduced samples were fractionated by electrophoresis through 10% polyacrylamide gels, as described by Resnick et al. (1993), and the labeled proteins were visualized by autoradiography with Kodak X-AR film. […]

[3] = tested on: Streptococcus agalactiae; assay: as above
Description: as §1, §2, §3, §4, §5

[4] = tested on: Streptococcus pyogenes; assay: as above
Description: as §1, §2, §3, §4, §5

[5] = tested on: Gram-positive bacteria; assay: microbial binding assay (whole cell assay), all species and strains of Table I; settings: for binding of [35S]s-bSR-I to Gram-positive bacteria: all species and strains tested (Table I)
Description: as §1, §2
as §3, with “The samples were then clarified by centrifugation (1000×g, 15 minutes, 4° C.) and stored in Falcon 2099 tubes that had been precoated with Buffer A+BSA.” left out

[6] = tested on: P388D1 cells; assay: cell binding assay: FITC-labeled S. pyogenes T1/195/2 bound to macrophage-like cells expressing MSRP; format: cell-based, murine; settings: 30 minutes 37° C., mean ± SD of three experiments, without poly G 72±8
Description: The ability of poly G to inhibit S. pyogenes binding was used in experiments to examine the interaction of FITC-labeled pyogenes (strain T1/195/2) with a cultured murine macrophage-like cell line, P388D1, shown previously to express MSRP by J. Ashkenas et al., 34 J. Lipid Res. 983-1000 (1993).
P388D1 cells were maintained in dishes in Ham's F-12 with 10% fetal calf serum, 100 units/ml penicillin, and 100 μg/ml streptomycin. For experiments, approximately 12,500 cells were plated on 1 cm glass cover slips, in media lacking antibiotics. Cells were allowed to adhere for at least 24-36 hours, then washed in Ham's F-12 containing 10% fetal calf serum. S. pyogenes, either unlabeled or FITC-labeled, was added (final dilution of 1:250 from a stock solution of O.D.600 =1.0) in the presence or absence of varying concentrations of poly G. Mixtures were incubated for 30 minutes at 37° C. in 5% CO2, then washed three times in PBS, and fixed with 100% cold methanol. Samples containing non-FITC labeled organisms were Gram-stained, then cover slips were mounted with Moviol and DAPCO. Slides were viewed in blinded fashion by two observers using fluorescence and phase contrast microscopy and a Nikon Microphot FXA epifluorescence microscope. The results (bacteria bound per 100 P388D1 cells) represent the means ± standard deviations determined from three experiments in which at least 100 P388D1 cells were counted for each condition.

[7] = tested on: Bacillus subtilis; assay: microbial binding assay (whole cell assay) of [35S]s-bSR-I
Description: as §1, §2, §3, §4, §5

[8] = tested on: Listeria monocytogenes; assay: as above
Description: as §1, §2, §3, §4, §5

[9] = tested on: Staphylococcus aureus; assay: as above
Description: as §1, §2, §3, §4, §5

[10] = tested on: Streptococcus mutans; assay: as above
Description: as §1, §2, §3, §4, §5

[11] = tested on: S. pneumoniae; assay: as above; parameters: species or system Streptococcus pneumoniae; settings: two encapsulated and one rough strain
Description: as §1, §2
[^35 S]methionine-labeled conditioned medium was prepared from transfected CHO[s-bSRI]-A2 cells and untransfected CHO cells. The media were designated [^35 S]s-bSR-I medium (containing s-bSR-I) and [^35 S]control medium (containing no s-bSR-I) respectively. […]

With “maleylated BSA: maleylated bovine serum albumin, MSRP ligand” the “competition with binding of labeled soluble receptor to poly G beads, M-BSA beads, or LTA” value (“competition with binding … or LTA” below) [1] was “successful competitors”.

In the case of poly C, the “competition with binding … or LTA” value [1] is reported as “failed to compete”.

With “polyGuanosine [poly G, reference compound]” the “competition with binding … or LTA” value [1] was “successful competitors”, the “competition with binding of receptor to Enterococcus hirae” value ([2]; 400 μg/ml poly G) was “competed” and the “competition with binding of receptor to S. agalactiae” value ([3]; 400 μg/ml poly G) was “competed”. The “competition with binding of S. pyogenes to s-bSR-I” value ([4]; poly G 400 μ/ml added to assay mixture) was “effective competitor”, the “competition of poly G with [35S]s-bSR-I binding to Gram-positive bacteria” value ([5]; extent of competition varied slightly between organisms) was “competitive” and the “number of cell associated bacteria/100 P388D1 cells” value (“number” for short) ([6]; poly G 2 μg/ml) was 43±4 bacteria/100 P388D1 cells. For the same molecule, the “number” value ([6]; poly G 20 μg/ml) was 28±9 bacteria/100 P388D1 cells and the “number” value ([6]; poly G 200 μg/ml) was 22±5 bacteria/100 P388D1 cells.

B1: s-bSR-I: truncated, secreted trimeric form of the type I bovine macrophage scavenger receptor containing all four extracellular domains, expressed in CHO cells (protein, UniProt P21758 77-453, looked up)
extracellular domain: KWETKNCTVGSVNADISPSPEGKGNGSEDEMRFREAVMERMSNMESRIQYLSDNEANLLDAKNFQNFSITTDQRFNDVLFQLNSLLSSIQEHENIIGDISKSLVGLNTTVLDLQFSIETLNGRVQENAFKQQEEMRKLEERIYNASAEIKSLDEKQVYLEQEIKGEMKLLNNITNDLRLKDWEHSQTLKNITLLQGPPGPPGEKGDRGPPGQNGIPGFPGLIGTPGLKGDRGISGLPGVRGFPGPMGKTGKPGLNGQKGQKGEKGSGSMQRQSNTVRLVGGSGPHEGRVEIFHEGQWGTVCDDRWELRGGLVVCRSLGYKGVQSVHKRAYFGKGTGPIWLNEVFCFGKESSIEECRIRQWGVRACSHDEDAGVTCTT
modifications: extracellular domain
notes: truncated, secreted trimeric form of the type I bovine macrophage scavenger receptor containing all four extracellular domains, expressed in CHO cells
With B1 the “binding of [35S]s-bSR-I to Bacillus subtilis” value [7] was “bound”, the “binding of [35S]s-bSR-I to Enterococcus hirae” value ([2]; strain 9790, overnight 4° C., autoradiography) was “bound” and the “binding of [35S]s-bSR-I to Listeria monocytogenes” value [8] was “bound”. For the same molecule, the “binding of [35S]s-bSR-I to Staphylococcus aureus” value [9] was “bound”, the “[35S]s-bSR-I binding, capsule-minus transposon mutants versus parent strains” value ([9]; S. aureus isogenic mutants) was “equivalently or better” and the “[35S]s-bSR-I binding, capsule-minus transposon mutants versus parent strains” value ([3]; S. agalactiae isogenic mutants) was “equivalently or better”. The “binding of [35S]s-bSR-I to S. agalactiae” value ([3]; overnight 4° C., autoradiography) was “bound”, the “binding of [35S]s-bSR-I to Streptococcus mutans” value [10] was “bound” and the “binding of [35S]s-bSR-I to S. pyogenes” value ([4]; eleven strains, seven different M protein types (Table I), overnight 4° C., SDS-PAGE/autoradiography) was “bound”. The “dependence of [35S]s-bSR-I binding on bacterial protein synthesis or viability” value ([4]; organisms preincubated with 50 μg/ml chloramphenicol or 0.05% NaN3, or killed at 60° C. for 10 minutes) was “neither decreased”, the “specificity of [35S]s-bSR-I binding to S. pyogenes” value ([4]; strain T1/195/2) was “specific” and the “s-bSR-I binding, M protein-negative mutant versus parent” value ([4]; type 28 strain T28/150A/5 and spontaneous M protein-negative mutant T28/51/4-4) was “equivalently”. The “[35S]s-bSR-I binding, acapsular mutant versus wild type” value ([4]; wild type 87-282 and hyaluronic acid-negative transposon mutant TX4) was “equally well”, the “binding of [35S]s-bSR-I to S. pneumoniae” value [11] was “minimal binding” and the “binding of [35S]s-bSR-I to Gram-positive bacteria” value [5] was “bound”. For the same molecule, the “binding of [35S]s-bSR-I to Gram-positive bacteria” value ([5]; listed as secreted Type I Bovine MSRP) was “Bound”.
